Data set [1] can be described thus: Luminescence of OgLuc variants expressed in HEK293 cells. It is filed as cell-based, human. Conditions: for Increase in Luminescence: HEK293: normalized to 9B8 opt. How it is done: The PCR library in the pF4Ag-based non-fusion background was screened for additional variants with increased luminescence compared to 9B8 opt+K33N+170G (SEQ ID NOs: 68 and 69). Selected variants were then assayed in HEK293 and NIH3T3 cells. For each cell type, 15,000 cells were plated and grown overnight at 37° C. The next day, the cells were transfected as described in Example 25 with 10 ng pGL4.13 (Promega Corp.) as a transfection control and 100 ng of the OgLuc test DNA. The media was removed, and the cells were lysed with 100 μL of lysis buffer as described in Example 25 except the lysis buffer contained 100 mM MES pH 6.0 instead of HEPES, and luminescence measured using a GLOMAX® Luminometer.
Based on the above data, further combination variants were designed and generated (see Table 10) in the context of the pF4Ag-based non-fusion vector background without the 170G. The variants were analyzed in E. coli, HEK293 and NIH3T3 cells as described above and compared to 9B8 opt+K33N. The variants were also examined for luminescence with native coelenterazine.
The brightness of the variants expressed in HEK293 and NIH3T3 cells was measured as described previously. The luminescence of the variants was normalized to the luminescence generated by 9B8 opt (Table 27).
The variants 9B8 opt+K33N+T39T+K43R+Y68D (“V2”; SEQ ID NOs: 92 and 93), 9B8 opt+K33N+L27V+K43R+Y68D (SEQ ID NOs: 339 and 340), 9B8 opt+K33N+L27V+T39T+K43R+S66N (SEQ ID NOs: 341 and 342), and 9B8 opt+K33N+L27V+T39T+K43R+Y68D (“L27V”; SEQ ID NOs: 88 and 89) were subcloned into the Id-OgLuc-HT7 sandwich background as described above and assayed in HEK293 and NIH3T3 cells as described above. The luminescence generated by the sandwiched variants were compared to the luminescence generated by the […] sandwich (SEQ ID NOs: 59 and 60) (Table 38). The L27V sandwich (SEQ ID NOs: 90 and 91) and V2 sandwich (SEQ ID NOs: 94 and 95) had at least 1.3× fold-increase in luminescence in HEK293 and NIH3T3 cells.
The sandwich and non-sandwich versions of the variants V2, 9B8 opt+K33N+L27V+K43R+Y68D, 9B8 opt+K33N+L27V+T39T+K43R+S66N, and L27V were assayed in HEK293 and NIH3T3 cells as described in Example 37. The luminescence generated by the non-sandwiched variants was compared to the luminescence generated by the sandwiched variants (Table 39).

The format of data set [2] is biochemical, E. coli. How it is done:
The signal stability of 15C1 with PBI-3945 and 9B8 with PBI-3889 was measured and compared to IV. E. coli containing plasmid DNA encoding 15C1, 9B8, or IV were grown and induced as described previously in 8-well replicates. Cells were lysed using a lysis buffer containing of 300 mM HEPES pH 8.0, 0.3× Passive Lysis Buffer (“PLB”; Promega Corp. Cat. No. E194A), 0.3 mg/mL lysozyme, and 0.003 U/μL RQ1 DNase. Lysates were diluted 1:1000 in lysis buffer and measured for luminescence using a TECAN® INFINITE® F500 luminometer. Measurements were taken immediately after the addition to 10 μL of diluted lysate sample of 50 μL of “Glo” 0.5% TERGITOL assay buffer (“0.5% TERGITOL”), which contained 150 mM KCl, 1 mM CDTA, 10 mM DTT, 100 mM thiourea, 0.5% TERGITOL® NP-9 (v/v), and 20 μM of either novel coelenterazines PBI-3945 or PBI 3889.
The signal stability of the variants was determined by re-reading the plate every 30 seconds for a length of time after the addition of the assay buffer to the sample. The signal half-life was determined from these measurements using methods known in the art. The average signal half-life was compared between the variants and IV. […] At t=10 min, luminescence for 15C1 with PBI-3945 and 9B8 with PBI-3889 were equivalent.
E. coli lysates containing the variants were prepared and analyzed as described previously except the assay buffer contained 0.25% TERGITOL® NP-9 (v/v), 100 mM MES pH 6.0, 1 mM CDTA, 150 mM KCl, 35 mM thiourea, 2 mM DTT, and 20 μM PBI-3939.

The format of data set [3] is physicochemical, E. coli. The following applies: for ½ life hours: 60° C., assay buffer 100 mM MES pH 6.0. How it is done: Aliquots were removed at different time-points and placed on dry ice to freeze the samples. […] Luminescence was measured on a GLOMAX® luminometer (Promega Corp.).
The thermal stability of the variants at 60° C. was examined as described above, except the assay buffer contained 100 mM MES pH 6.0 instead of HEPES.

Data set [4] can be described thus: Stability of secreted OgLuc variants in saved media. The format is physicochemical. Conditions: secreted variant in media. The protocol:
To determine if the secretion signal sequence of OgLuc facilitates its secretion, the OgLuc variants 9B8, V2 and L27V were cloned into pF4Ag containing an N-terminal OgLuc secretion signal sequence. The variants were also cloned into vectors without the secretion signal sequence. CHO or HeLa cells were then plates at 100,000 cells/well in 1 mL F12 media with 10% FBS and 1× sodium pyruvate (CHO cells) or DMEM with 10% FBS and 1× sodium pyruvate (HeLa cells) into 12-well plates and incubated overnight at 37° C., 5% CO2.
After the overnight incubation, the cells were transfected with 1 μg plasmid DNA containing 9B8, V2, or L27V with or without the secretion signal sequence using the TRANSIT®-LT1 transfection reagent (Minis Bio) and OPTI-MEM® media (Invitrogen). The cells were again incubated overnight at 37° C., 5% CO2.
After the second overnight incubation, the media was removed and saved for analysis. […] To 10 μL of cell lysate or saved media from each sample, 50 μL assay buffer with 40 μM FBI-3939 was added, and luminescence measured as described above.
To determine the stability of the secreted variants, 150 μL aliquots of the saved media from each sample was placed at 37° C. or 50° C. The aliquots were then removed at different time points ([…]), frozen on thy ice, and kept at −20° C. until assayed. To assay for stability, the media aliquots were thawed to room temperature, and 10 μL of each aliquot was mixed with assay buffer with PBI-3939 (pH 6.0) as described above. Luminescence was measured as above, and the half-life (t50) determined (Table 34).

Where a chain is given by its changes, count along the chain named. Names and notes keep the numbering of the source.

B1: L27V: 9B8 opt+K33N variant with L27V, T39T, K43R, Y68D (protein)
chain: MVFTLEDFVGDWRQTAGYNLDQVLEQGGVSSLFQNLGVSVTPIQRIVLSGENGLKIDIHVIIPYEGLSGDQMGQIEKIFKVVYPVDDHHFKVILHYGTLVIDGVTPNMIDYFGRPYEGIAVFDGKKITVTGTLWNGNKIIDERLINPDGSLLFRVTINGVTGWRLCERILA
Turning to B1, in data set [1], the “Fold-Decrease in Luminescence in the Presence of Sandwich Background: HEK 293” value amounted to 6 and the “Increase in Luminescence: HEK293” value is reported as 1.6. Moreover, in data set [1] (luminescence, PBI-3939), the “Fold over 9B8 opt + K33N: HEK293” value is 0.8. The “Fold over Native Coelenterazine: HEK293” value in data set [1] (relative specificity for PBI-3939) is recorded as 97. Besides, the “signal half life” value in data set [2] amounted to 1.9 h. In data set [3], this molecule returned a ½ life hours of 21.7 h. Besides, in data set [4], the “½ life 37° C.” value was 17 days and the “½ life 50° C.” value stood at 11 h.

B2: 9B8: IV variant with Q18L, F68Y, L72Q, M75K; in Tables 12, 22, 23, 26, 27 “9B8” stands for 9B8 opt (protein)
chain: B1 chain with V29L, N35K, R45K, D70Y
Consider B2, for which the “Increase in Luminescence: HEK293” value in data set [1] was 1.0. Besides, in data set [2], the “signal half life” value is 1.23 h and the signal half-life entry was “at least 30 min”. The molecule also came in with a ½ life hours in data set [3] of 5.1 h. Moreover, in data set [4], the “½ life 37° C.” value is given as 8 days and the “½ life 50° C.” value came out at 3 h.

B3: 9B8 opt: codon optimized version of the 9B8 variant (protein)
chain: B1 chain with V29L, N35K, R45K, D70Y
On to B3, for which the RLU in data set [3] (luminescence at start of incubation (t=0)) was 23,283,252,000 RLU. Further, the “T1/2(60° C.)” value in data set [3] (pH 7) amounted to 5.7 h.

For the origin of these results see patent US8809529B2, “Imidazo[1,2-α]pyrazine derivatives” (Promega Corporation, priority 2010, dated 2014).
